Here are results for twelve molecules from patent publication US20260209362A1 (VIB VZW, published 2026).

B1: anti-IL-12Rβ2-VHH-FcDE clone 20438 (Fc fusion)
chain: QVQLQESGGGLVQPGGSLRLSCTASGFAFSTYWMYWIRQSPEKGFEWVSVVNTGGDITYYADSVKGRFTISRDNAKNTLYLQMNSLKPEDTALYYCARDRTTMSYTRTYYRGGQGTQVTVSSAPELLGGPDVFLFPPKPKDTLMISRTPEVTCVVVDVSHEDPEVKFNWYVDGVEVHNAKTKPREEQYNSTYRVVSVLTVLHQDWLNGKEYKCKVSNKALPAPEEKTISKAKGQPREPQVYTLPPSRDELTKNQVSLTCLVKGFYPSDIAVEWESNGQPENNYKTTPPVLDSDGSFFLYSKLTVDKSRWQQGNVFSCSVMHEALHNHYTQKSLSLSPGK
B2: 20429-FcDE (Fc fusion)
VHH-Fc chain: QVQLQESGGGLVQPGGSLRLSCKASGFTFSTYAMSWVRQAPGKGLEWVSAVNSGGLSTDYADSVEGRFTISRDDAKNMLFLQMNSLKPEDTARYYCAKYEDCSDYMCHRDRAGYWGQGTQVTVSSAPELLGGPDVFLFPPKPKDTLMISRTPEVTCVVVDVSHEDPEVKFNWYVDGVEVHNAKTKPREEQYNSTYRVVSVLTVLHQDWLNGKEYKCKVSNKALPAPEEKTISKAKGQPREPQVYTLPPSRDELTKNQVSLTCLVKGFYPSDIAVEWESNGQPENNYKTTPPVLDSDGSFFLYSKLTVDKSRWQQGNVFSCSVMHEALHNHYTQKSLSLSPGK
B3: 20394-FcDE (Fc fusion)
VHH-Fc chain: QVQLQESGGGLVQAGDSLRLSCAASGRTFDTYIVGWFRQAPGKEREFVSALSWSDDTTIRDDSLRGRFTISRDNAKNTVYLLMNSLKPEDTAVYYCAAKAKPPAATWSSYRNREWYDYWGQGTQVTVSSAPELLGGPDVFLFPPKPKDTLMISRTPEVTCVVVDVSHEDPEVKFNWYVDGVEVHNAKTKPREEQYNSTYRVVSVLTVLHQDWLNGKEYKCKVSNKALPAPEEKTISKAKGQPREPQVYTLPPSRDELTKNQVSLTCLVKGFYPSDIAVEWESNGQPENNYKTTPPVLDSDGSFFLYSKLTVDKSRWQQGNVFSCSVMHEALHNHYTQKSLSLSPGK
B4: 20415-FcDE (Fc fusion)
VHH-Fc chain: QVQLQESGGGLVQPGGSLRLSCTASGSIVSIYNMDWYRQAPGNEREWVASITSSGDPYYDGSAKGRFTISRDNAKMTVYLQMNSLKPEDTAVYYCKVPTEKGNYWGQGTQVTVSSAPELLGGPDVFLFPPKPKDTLMISRTPEVTCVVVDVSHEDPEVKFNWYVDGVEVHNAKTKPREEQYNSTYRVVSVLTVLHQDWLNGKEYKCKVSNKALPAPEEKTISKAKGQPREPQVYTLPPSRDELTKNQVSLTCLVKGFYPSDIAVEWESNGQPENNYKTTPPVLDSDGSFFLYSKLTVDKSRWQQGNVFSCSVMHEALHNHYTQKSLSLSPGK
B5: 20422-FcDE (Fc fusion)
VHH-Fc chain: B4 VHH-Fc chain with K86E, Y94F
B6: anti-IL-12Rβ2-VHH-Fc clone 20432 with a wildtype IgG1 Fc sequence (Fc fusion)
chain: QVQLQESGGGLVQPGGSLRLSCAASGFTFSTSGMHWFRQAPGKGLEWVSSIGATVDNSYYASSVKGRFTISRDNAKNTLYLLMNSLKSEDTAVYYCSKDPTGSSRGQGTQVTVSSAPELLGGPSVFLFPPKPKDTLMISRTPEVTCVVVDVSHEDPEVKFNWYVDGVEVHNAKTKPREEQYNSTYRVVSVLTVLHQDWLNGKEYKCKVSNKALPAPIEKTISKAKGQPREPQVYTLPPSRDELTKNQVSLTCLVKGFYPSDIAVEWESNGQPENNYKTTPPVLDSDGSFFLYSKLTVDKSRWQQGNVFSCSVMHEALHNHYTQKSLSLSPGK
B7: 20421-FcDE (Fc fusion)
VHH-Fc chain: QVQLQESGGGLVQPGGSLRLSCAASGFTFSTYAMSWVRQAPGKGLEWVSAVNSGGLSTDYADSVEGRFTISRDDAKNMLFLQMNRLKPEDTARYYCAKYEDCSDYVCDRAGYWGQGTQVTVSSAPELLGGPDVFLFPPKPKDTLMISRTPEVTCVVVDVSHEDPEVKFNWYVDGVEVHNAKTKPREEQYNSTYRVVSVLTVLHQDWLNGKEYKCKVSNKALPAPEEKTISKAKGQPREPQVYTLPPSRDELTKNQVSLTCLVKGFYPSDIAVEWESNGQPENNYKTTPPVLDSDGSFFLYSKLTVDKSRWQQGNVFSCSVMHEALHNHYTQKSLSLSPGK
B8: anti-IL-12Rβ2-VHH-FcDE clone 20407 (Fc fusion)
chain: QVQLQESGGGLVQPGGSLRLTCVASGFPFSTHAMSWVRQPPGKGREWISAINSGGDSTDYADSVMGRFTISRDNAKNTVYLQMNSLKSEDTAAYYCAKYEDCSDYDCSSRASWGQGTQVTVSSAPELLGGPDVFLFPPKPKDTLMISRTPEVTCVVVDVSHEDPEVKFNWYVDGVEVHNAKTKPREEQYNSTYRVVSVLTVLHQDWLNGKEYKCKVSNKALPAPEEKTISKAKGQPREPQVYTLPPSRDELTKNQVSLTCLVKGFYPSDIAVEWESNGQPENNYKTTPPVLDSDGSFFLYSKLTVDKSRWQQGNVFSCSVMHEALHNHYTQKSLSLSPGK
B9: 20399-FcDE (Fc fusion)
VHH-Fc chain: QVQLQESGGGLVQPGGSLRLSCAASGSILRINLMGWYRQVPGKQRELVAEMSTGGSTTYVDSVEGRFTISRDNAKNTVYLQMNSLKPEDTAVYYCNAKAWQLGRLENDDWGQGTQVTVSSAPELLGGPDVFLFPPKPKDTLMISRTPEVTCVVVDVSHEDPEVKFNWYVDGVEVHNAKTKPREEQYNSTYRVVSVLTVLHQDWLNGKEYKCKVSNKALPAPEEKTISKAKGQPREPQVYTLPPSRDELTKNQVSLTCLVKGFYPSDIAVEWESNGQPENNYKTTPPVLDSDGSFFLYSKLTVDKSRWQQGNVFSCSVMHEALHNHYTQKSLSLSPGK
B10: 20378-FcDE (Fc fusion)
VHH-Fc chain: QVQLQESGGGLVQAGDSLRLSCTASGHTFSRYTTIGWFRQAPGKDREFVAAIRWSGDITDYADAVKGRFTISRDNVKNTVYLQMNSLNPEDTAVYYCARGYSEYGVLSRNRGLYAYWGQGTQVTVSSAPELLGGPDVFLFPPKPKDTLMISRTPEVTCVVVDVSHEDPEVKFNWYVDGVEVHNAKTKPREEQYNSTYRVVSVLTVLHQDWLNGKEYKCKVSNKALPAPEEKTISKAKGQPREPQVYTLPPSRDELTKNQVSLTCLVKGFYPSDIAVEWESNGQPENNYKTTPPVLDSDGSFFLYSKLTVDKSRWQQGNVFSCSVMHEALHNHYTQKSLSLSPGK
B11: 20400-FcDE (Fc fusion)
VHH-Fc chain: QVQLQESGGGLVQPGGSLRLSCAASGRTINAYIMGWFRQAPGKEREFVAAVSGSGGSTYYADSVKGRFTISRDNAKNTVNLQMDNLRSEDTDVYYCAATYESVYLQNPGQYDYWGQGTQVTVSSAPELLGGPDVFLFPPKPKDTLMISRTPEVTCVVVDVSHEDPEVKFNWYVDGVEVHNAKTKPREEQYNSTYRVVSVLTVLHQDWLNGKEYKCKVSNKALPAPEEKTISKAKGQPREPQVYTLPPSRDELTKNQVSLTCLVKGFYPSDIAVEWESNGQPENNYKTTPPVLDSDGSFFLYSKLTVDKSRWQQGNVFSCSVMHEALHNHYTQKSLSLSPGK
B12: 20401-FcDE (Fc fusion)
VHH-Fc chain: QVQLQESGGGLVQAGESLTLSCIASGVIKDYAMGWFRQAPGKEREFVAAISWSGVSIYYADSVKGRFTISRDNAKNTVYLQMNSLEPEDTAVYYCAGTEGAYTVAGGSTFGYDMDYWGKGTQVTVSSAPELLGGPDVFLFPPKPKDTLMISRTPEVTCVVVDVSHEDPEVKFNWYVDGVEVHNAKTKPREEQYNSTYRVVSVLTVLHQDWLNGKEYKCKVSNKALPAPEEKTISKAKGQPREPQVYTLPPSRDELTKNQVSLTCLVKGFYPSDIAVEWESNGQPENNYKTTPPVLDSDGSFFLYSKLTVDKSRWQQGNVFSCSVMHEALHNHYTQKSLSLSPGK

Residue numbers refer to the chain shown, from its start.

The target in the assay is T1, human IL-12Rβ2 expressed on cells (human, UniProt Q99665 24-862).
T1 sequence: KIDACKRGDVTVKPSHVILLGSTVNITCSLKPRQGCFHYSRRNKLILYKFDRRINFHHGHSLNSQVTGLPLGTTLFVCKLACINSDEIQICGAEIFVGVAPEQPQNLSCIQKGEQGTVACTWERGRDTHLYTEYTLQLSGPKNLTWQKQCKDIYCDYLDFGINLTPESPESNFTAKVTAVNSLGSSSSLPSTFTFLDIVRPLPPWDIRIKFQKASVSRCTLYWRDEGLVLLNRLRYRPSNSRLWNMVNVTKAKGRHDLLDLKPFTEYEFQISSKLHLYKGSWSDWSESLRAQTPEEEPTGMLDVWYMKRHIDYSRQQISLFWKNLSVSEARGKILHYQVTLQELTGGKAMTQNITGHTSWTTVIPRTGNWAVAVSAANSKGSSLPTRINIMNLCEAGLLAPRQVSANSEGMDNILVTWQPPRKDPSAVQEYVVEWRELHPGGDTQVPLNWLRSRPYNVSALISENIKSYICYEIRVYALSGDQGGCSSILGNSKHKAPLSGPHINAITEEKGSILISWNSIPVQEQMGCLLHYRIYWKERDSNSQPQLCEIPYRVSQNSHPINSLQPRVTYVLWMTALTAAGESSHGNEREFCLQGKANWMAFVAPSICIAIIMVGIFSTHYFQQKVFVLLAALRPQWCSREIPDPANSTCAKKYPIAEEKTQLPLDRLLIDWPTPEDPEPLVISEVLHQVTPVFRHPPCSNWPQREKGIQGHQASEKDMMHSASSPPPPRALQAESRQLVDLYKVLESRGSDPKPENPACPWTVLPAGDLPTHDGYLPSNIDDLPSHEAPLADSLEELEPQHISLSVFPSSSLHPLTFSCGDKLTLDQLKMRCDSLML
Description: cell-based or functional assay.
Regarding B1, the “% Specific Cell Lysis at 0.00125 ug/mL” value is 49.5%, the “% Specific Cell Lysis at 0.5 ug/mL” value is 63.4% and the “% Specific Cell Lysis at 10 ug/mL” value worked out at 66.9%.

For B2, the “% Specific Cell Lysis at 0.00125 ug/mL” value stood at 59%, the “% Specific Cell Lysis at 0.5 ug/mL” value came out at 67.7% and the “% Specific Cell Lysis at 10 ug/mL” value was 67.3%.

As to B3, the “% Specific Cell Lysis at 0.00125 ug/mL” value came to 54%, the “% Specific Cell Lysis at 0.025 ug/mL” value is 52.1% and the “% Specific Cell Lysis at 10 ug/mL” value stood at 66%.

B4: the “% Specific Cell Lysis at 0.00125 ug/mL” value stood at 52.8%, the “% Specific Cell Lysis at 0.025 ug/mL” value turned out to be 61.1%, the “% Specific Cell Lysis at 0.5 ug/mL” value was found to be 68.8% and the “% Specific Cell Lysis at 10 ug/mL” value stood at 77.9%.

Turning to B5, the “% Specific Cell Lysis at 0.5 ug/mL” value turned out to be 65.8% and the “% Specific Cell Lysis at 10 ug/mL” value amounted to 67.3%.

For B6, the “% Specific Cell Lysis at 0.025 ug/mL” value stood at 54.3%.

With B7, the “% Specific Cell Lysis at 0.00125 ug/mL” value stood at 61.3%, the “% Specific Cell Lysis at 0.025 ug/mL” value turned out to be 65.9%, the “% Specific Cell Lysis at 0.5 ug/mL” value came out at 67.7% and the “% Specific Cell Lysis at 10 ug/mL” value came out at 69%.

As to B8, the “% Specific Cell Lysis at 0.00125 ug/mL” value was 63.3%, the “% Specific Cell Lysis at 0.025 ug/mL” value came out at 66.5%, the “% Specific Cell Lysis at 0.5 ug/mL” value was found to be 71.7% and the “% Specific Cell Lysis at 10 ug/mL” value was determined as 66.2%.

B9: the “% Specific Cell Lysis at 0.00125 ug/mL” value was found to be 61%, the “% Specific Cell Lysis at 0.025 ug/mL” value came to 63.1%, the “% Specific Cell Lysis at 0.5 ug/mL” value is 67.1% and the “% Specific Cell Lysis at 10 ug/mL” value turned out to be 72.4%.

As to B10, the “% Specific Cell Lysis at 0.00125 ug/mL” value turned out to be 52.4%.

For the molecule B11, the “% Specific Cell Lysis at 0.00125 ug/mL” value amounted to 45.4% and the “% Specific Cell Lysis at 0.025 ug/mL” value turned out to be 47.6%.

As to B12, the “% Specific Cell Lysis at 0.00125 ug/mL” value worked out at 48%, the “% Specific Cell Lysis at 0.025 ug/mL” value is 47.5% and the “% Specific Cell Lysis at 10 ug/mL” value was found to be 64.9%.
